Source: PMC3324464, “The GPI Anchor Signal Sequence Dictates the Folding and Functionality of the Als5 Adhesin from Candida albicans” (PLoS ONE, 2012)
“Also recorded” adds a separate entry of the source.

What was measured:
Candida SC5314 cells = test: Competition of anti-Als5 antibody binding to Candida cell surface, flow cytometry; assay type: cell-based, Candida albicans; conditions: TRITC secondary antibody, 37 °C 1 hour, mean of 3 independent experiments in duplicates
Method: The production of the antibodies was outsourced (Merck India Ltd.). Polyclonal antibodies were generated in rabbit against the protein band obtained after an SDS-PAGE run of GST- Als5-SS. The antibodies detected both GST-Als5 as well as GST-Als5-SS on a Western Blot. The specificity of the generated anti-Als5 antibody was checked by detecting its ability to bind to the Candida cell surface adhesins. For staining, Candida SC5314 cells (a kind gift from Prof. Rajendra Prasad, SLS, JNU) were grown in synthetic dextrose minimal medium at 30°C to an OD600nm of 0.5. 500 µl of the cells were taken in an eppendorf and washed with PBS. […] The cells were then washed thrice with PBS, and the presence of the TRITC labelled secondary Ab on the Candida cells was detected using flow cytometry. To rule out the non-specific interaction of the secondary Ab with the proteins on Candida cell surface, unstained cells were also detected by flow cytometer. […]
In order to confirm the identity of the Als5 protein, we also designed the following experiment. […] Using a TRITC labelled secondary antibody, we detected the bound primary antibodies on the Candida cells by flow cytometry. […]
Figure 2 GST-Als5 specifically blocks binding of anti-Als5 antibody on Candida cell surface. […] This primary antibody was detected by a secondary antibody that was conjugated with TRITC and detected using flow cytometry as described in the text. […]

[1] = Aggregation by transmission electron microscopy; assay type: physicochemical; conditions: 37 °C
Method: Transmission Electron Microscopy (TEM)
TEM studies were carried out on a JEOL 2100F. The proteins (0.09 mg/ml) were incubated at 37 °C for 2 weeks prior to the measurements. The proteins were spotted on a carbon-coated copper grid and positively stained with 2% uranyl acetate. The sample was then dried and examined by TEM using a 210 kV accelerating voltage.
Figure 5 Transmission electron microscope images showing aggregation by GST-Als5. […] The scale bar in each panel represents 100 nm. Left panel: 10,000X magnification. Right panel: 25,000X magnification.
(A) Prediction of β-aggregation potential for the GPI anchor attachment signal sequence (SS). The prediction of β-aggregation potential for the SS was done using TANGO (residues 1328–1347). Also shown is the propensity for α-helix, β-turn and β-sheet formation in the unfolded polypeptide chain as predicted by TANGO. […] (B). Transmission electron microscope images showing aggregation by SS and SS in the presence of GST-Als5. The samples, SS (40.0 µM), GST-Als5 (0.4 µM) and GST-Als5 (0.4 µM) + SS (40.0 µM) were incubated as 37 °C for two days before TEM images were recorded.

B1: GST-Als5: GST fusion of full length Als5 minus the GPI anchor attachment signal sequence, expressed in E. coli (protein)
chain: ITGIFNSIDSLTWSNAGNYAFKGPGYPTWNAVLGWSLDGTSANPGDTFILNMPCVFKFTASQKSVDLTADGVKYATCQFYSGEEFTTFSSLKCTVNNNLRSSIKALGTVTLPIAFNVGGTGSSVDLEDSKCFTAGTNTVTFNDGSKKLSIAVNFEKSTVDQSGYLTTSRFMPSLNKIATLYVAPQCENGYTSGTMGFSTSYGDVAIDCSNVHIGISKGVNDWNHPVTSESFSYTKSCSSFGISITYQNVPAGYRPFIDAYISPSDNNQYQLSYKNDYTCVDDYWQHAPFTLKWTGYKNSDAGSNGIVIVATTRTVTDSTTAVTTLPFNPSVDKTKTIEILQPIPTTTITTSYVGVTTSYSTKTAPIGETATVIVDVPYHTTTTVTSEWTGTITTTTTRTNPTDSIDTVVVQVPLPNPTTTTTQFWSESFTSTTTITNSLKGTDSVIVREPHNPTVTTTEFWSESYATTETITNGPEGTDSVIVREPHNPTVTTTEFWSESYATTETVTNKPEGTDSVIIKEPHNPTVTTTEFWSESYATTETITTGPLGTDSIVIHDPLEESSSTTAIESSDSNISSSAQESSSSVEQSSSIVGLSSSSDIPLSSDMPSSSSTGLTSSESSTVSSYDSDSSSSSELSTFSSSESYSSSISDTTNFWDSSSSDLESTSITWSSSIDAQSSQSVQSVSNSISTSQETTSSSGEESNTSVTDILVSSDASSILNSDISSYYPSSTISLSDDFPHTIAGEPDSRSSSSIASTVEISSDLVSLTSDPTSSFDSSSSLNSDSSSSPFSDESDISASSSFSTLVAPSFSLSSSSSLSLTYPHYVNSTTYHASESESSSVASPSMASESANDDTHTLSESTDTTSSIGTDSSTVTFCRRDNGDGCIVTGMPSSSIDSEQTSDVTTTSSFVASSTPTSAEQSITDNPNIDSSQTSASSSTKSSVSVSDTVVNSISLSETSTLSSDDSTSSDTSISSTTNSDTGNINAGSSHTSTASIKESSIQKTGVMLSSSYLSTKLSSTSDITTELITTELITTELTTIEDNEPNTFTSTPSSHSEIFSSDNSVLSKQVDRESTIKTSPTTDVTTVSSLSVHSTEASTATLGENSFSNVASTPSNIATSLRSTSSSSNHATESSGTVKSEASAEAIPSPPTSTDNRLSYSTEEAKGITYANSGSTNNLITESQVAAPTDSTSVLIENPVVTSTFDDNSSAAVDQPSKTKSIEESIMNPDSTNETNNGFIATLSQAQVPNSLIHSESISTTMAKTTDASINGDSAASNSQPTTLIQQVATSSYNQPLITTYAGSSS
modifications: left off: GST, N-terminal, kept
Candida SC5314 cells
  inhibition of anti-Als5 antibody binding to Candida cells (in words): could inhibit the interaction of the primary antibodies to the cell surface in a concentration dependent manner; also recorded: inhibited the binding of anti-Als5 antibody to C.albicans cell surface in a concentration dependent manner
[1]; 2 weeks, 0.4 µM / 0.09 mg/ml (method)
  aggregation (in words): significantly higher amount of aggregation as compared to either GST-Als5-SS or GST alone; also recorded: showed significant amount of aggregation
[1]; 2 days, SS 40.0 µM, GST-Als5 0.4 µM, alone or together
  aggregation (in words): aggregates both in the absence as well as in the presence of SS
